In this experiment the target is recombinant human ATM, wild type (N-terminal FLAG-FKBP1A) (human) (UniProt Q13315).
UniProt Q13315, sequence (Q13315 whole entry): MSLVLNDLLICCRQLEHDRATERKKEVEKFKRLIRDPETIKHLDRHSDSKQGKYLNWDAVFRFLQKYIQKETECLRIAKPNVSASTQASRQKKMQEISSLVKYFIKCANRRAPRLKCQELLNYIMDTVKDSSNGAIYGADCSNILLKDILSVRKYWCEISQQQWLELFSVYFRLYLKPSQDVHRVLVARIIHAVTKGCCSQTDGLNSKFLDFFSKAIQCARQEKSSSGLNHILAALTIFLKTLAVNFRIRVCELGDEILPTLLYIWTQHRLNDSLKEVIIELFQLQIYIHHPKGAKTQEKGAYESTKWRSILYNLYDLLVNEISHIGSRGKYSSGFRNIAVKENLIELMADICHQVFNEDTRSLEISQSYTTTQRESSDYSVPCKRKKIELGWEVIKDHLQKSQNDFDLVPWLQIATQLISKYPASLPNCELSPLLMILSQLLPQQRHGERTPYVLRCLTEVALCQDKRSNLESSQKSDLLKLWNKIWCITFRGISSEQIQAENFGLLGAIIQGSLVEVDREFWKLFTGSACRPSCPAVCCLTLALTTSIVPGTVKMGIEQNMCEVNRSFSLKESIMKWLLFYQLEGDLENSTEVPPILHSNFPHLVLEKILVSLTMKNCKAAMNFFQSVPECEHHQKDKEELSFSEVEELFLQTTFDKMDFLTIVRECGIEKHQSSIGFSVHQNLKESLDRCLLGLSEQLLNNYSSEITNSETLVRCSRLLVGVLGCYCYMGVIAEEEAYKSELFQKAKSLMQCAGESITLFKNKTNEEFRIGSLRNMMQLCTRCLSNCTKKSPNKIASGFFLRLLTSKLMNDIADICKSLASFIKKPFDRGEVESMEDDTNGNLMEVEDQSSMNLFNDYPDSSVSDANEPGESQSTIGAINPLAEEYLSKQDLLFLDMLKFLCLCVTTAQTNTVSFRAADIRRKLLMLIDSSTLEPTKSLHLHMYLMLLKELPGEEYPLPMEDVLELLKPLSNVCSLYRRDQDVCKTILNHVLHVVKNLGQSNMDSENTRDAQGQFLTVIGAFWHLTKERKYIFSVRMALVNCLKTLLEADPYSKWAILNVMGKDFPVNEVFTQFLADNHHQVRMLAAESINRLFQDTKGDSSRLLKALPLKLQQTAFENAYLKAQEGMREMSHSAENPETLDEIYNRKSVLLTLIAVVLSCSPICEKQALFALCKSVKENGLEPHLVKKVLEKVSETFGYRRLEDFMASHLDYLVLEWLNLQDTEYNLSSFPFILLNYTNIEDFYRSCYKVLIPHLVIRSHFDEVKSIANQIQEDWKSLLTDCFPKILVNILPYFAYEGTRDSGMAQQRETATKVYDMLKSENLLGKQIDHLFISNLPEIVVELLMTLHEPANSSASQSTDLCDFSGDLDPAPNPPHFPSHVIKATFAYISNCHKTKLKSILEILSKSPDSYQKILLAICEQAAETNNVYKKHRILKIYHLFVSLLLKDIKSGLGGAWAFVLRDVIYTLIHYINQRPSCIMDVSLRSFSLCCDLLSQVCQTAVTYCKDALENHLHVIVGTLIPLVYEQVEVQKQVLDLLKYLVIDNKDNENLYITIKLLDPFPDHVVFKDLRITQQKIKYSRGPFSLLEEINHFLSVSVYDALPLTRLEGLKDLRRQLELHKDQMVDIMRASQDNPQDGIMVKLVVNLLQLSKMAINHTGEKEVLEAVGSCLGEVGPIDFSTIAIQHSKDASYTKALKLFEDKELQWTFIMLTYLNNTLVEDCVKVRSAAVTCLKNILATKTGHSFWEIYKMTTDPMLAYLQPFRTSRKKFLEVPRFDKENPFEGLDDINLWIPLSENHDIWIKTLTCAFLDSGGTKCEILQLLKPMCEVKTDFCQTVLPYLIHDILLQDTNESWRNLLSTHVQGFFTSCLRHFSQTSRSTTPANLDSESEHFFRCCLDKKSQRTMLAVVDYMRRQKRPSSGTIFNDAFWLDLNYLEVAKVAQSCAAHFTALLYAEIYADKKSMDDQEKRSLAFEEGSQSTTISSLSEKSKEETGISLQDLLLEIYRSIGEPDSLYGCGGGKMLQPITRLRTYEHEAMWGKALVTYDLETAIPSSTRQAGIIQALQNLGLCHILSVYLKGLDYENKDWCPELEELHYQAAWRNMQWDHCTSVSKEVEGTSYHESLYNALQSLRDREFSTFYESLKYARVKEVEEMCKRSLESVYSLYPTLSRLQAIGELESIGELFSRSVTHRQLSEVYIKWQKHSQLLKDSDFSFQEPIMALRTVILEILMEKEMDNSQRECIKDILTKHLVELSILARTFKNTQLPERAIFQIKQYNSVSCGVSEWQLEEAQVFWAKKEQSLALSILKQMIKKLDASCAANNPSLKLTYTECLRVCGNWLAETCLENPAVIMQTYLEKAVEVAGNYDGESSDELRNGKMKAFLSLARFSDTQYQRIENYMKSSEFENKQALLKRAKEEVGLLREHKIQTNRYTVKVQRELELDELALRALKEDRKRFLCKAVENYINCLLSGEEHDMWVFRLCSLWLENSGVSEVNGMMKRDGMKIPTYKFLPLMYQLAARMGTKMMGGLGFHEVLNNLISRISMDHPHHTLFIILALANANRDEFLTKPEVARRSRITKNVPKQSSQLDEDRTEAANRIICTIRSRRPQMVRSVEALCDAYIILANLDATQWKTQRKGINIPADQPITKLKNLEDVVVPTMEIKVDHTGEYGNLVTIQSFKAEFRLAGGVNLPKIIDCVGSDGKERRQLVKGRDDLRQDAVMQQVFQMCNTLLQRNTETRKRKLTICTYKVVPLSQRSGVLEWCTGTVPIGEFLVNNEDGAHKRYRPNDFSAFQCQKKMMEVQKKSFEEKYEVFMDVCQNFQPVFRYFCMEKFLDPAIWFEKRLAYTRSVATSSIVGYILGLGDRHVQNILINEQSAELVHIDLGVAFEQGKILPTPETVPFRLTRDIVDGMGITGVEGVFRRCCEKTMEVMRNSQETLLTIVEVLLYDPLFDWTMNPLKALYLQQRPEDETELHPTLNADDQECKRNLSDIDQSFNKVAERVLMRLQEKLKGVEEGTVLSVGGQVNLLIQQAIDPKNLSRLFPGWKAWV

Consider “His-MBP-TEV-p53(1-102) (from UniProt P04637 1-102) (domain or fragment)”, for which the KM for p53 substrate, ATM activated by H2O2 (Phos-tag gel kinase assay, Michaelis-Menten) is 29 µM; the KM for p53 substrate, basal conditions (Phos-tag gel kinase assay, Michaelis-Menten) turned out to be 80 µM; the KM for p53 substrate, in the presence of MRN and 350-base pair dsDNA (Phos-tag gel kinase assay, Michaelis-Menten) is 24 µM.

(Values after publication PMC10530080.)
